Data as given in the supplement of paper PMC12042874.
± gives the uncertainty stated by the source.

Assay: amyloid nucleation score (Sup35N fusion, yeast selection) (log enrichment); library NNK3; higher = more nucleation; inactive = no reads after selection
How it was run: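 Nucleation score: DiMSum log enrichment of output over input reads, centred on the mode score of non-aggregating sequences. Only sequences with at least 100 input reads were kept. Reads came from Illumina sequencing of plasmid inserts before and after 7 days of growth at 30°C without adenine and uracil, in psi-negative yeast expressing Sup35N fused to peptides of 20 random codons after 24 hours of induction with 100 μM copper sulfate.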

| Substance | amyloid nucleation score |
| --- | --- |
| VSFCGTPFFYHWRHSNWLFK | inactive |
| VSFFDQTKASGYSLRLMLFM | inactive |
| VSGQVVFGLWGYLWLYEEVF | inactive |
| VSGVECSCD | 0.762 ± 0.15 |
| VSIFCCQPSSVIAVDISDHS | 2.93 ± 0.068 |
| VSIRAVRYKVLGLFWSSTHV | inactive |
| VSLFYKCSYNGVYNNRVLAP | 1.43 ± 0.09 |
| VSLMP | inactive |
| VSNMGSMIVVVSVRCYM | 1.45 ± 0.094 |
| VSPVGSSRWWHDLHVSLETS | inactive |
| VSRCRVHKFTGYC | -0.441 ± 0.8 |
| VSRKMRLVWTRLVER | inactive |
| VSRTSVSRRFYCIARMCSPV | inactive |
| VSSMYVVIHGV | inactive |
| VSSSVVYTFVMSSLLGVDNE | inactive |
| VSTSVDYFYGGPWTLVFGCL | 2.6 ± 0.072 |
| VSTYGWAVRWGVFWGSMTYT | inactive |
| VSVLIHGKRSFGMWCSMHAY | inactive |
| VSVLRWLKRLDLHCGGV | inactive |
| VSVVNYKVVHSSAEKVFSFS | inactive |
| VSYISDQGC | inactive |
| VSYVCDPLRKIVGTLVRKQV | 0.563 ± 0.33 |
| VTAMSMNVAQCPAYPR | inactive |

| Substance | amyloid nucleation score |
| --- | --- |
| VTCPNFQKIYRQGCYGGFDT | inactive |
| VTCSYQMVLWAAFVVKCPAL | 0.817 ± 0.21 |
| VTCVVVVGVHVRRHGFQEYV | inactive |
| VTFTHKEHGRPNTRSFTKYL | inactive |
| VTGHLGKG | inactive |
| VTIITMEIWL | 1.64 ± 0.06 |
| VTLCVVEPDCWRIGG | inactive |
| VTLLPVSVCINAFNLILGPF | 3.08 ± 0.065 |
| VTPSTGRSIVVTPGTYIARV | inactive |
| VTRETADDATVSQFWLNPSE | inactive |
| VTRMLFVHCGTSVNVNS | inactive |
| VTRSDGTTISYNISIKLGKG | 2.2 ± 0.071 |
| VTSAPNKCFNLFYVNWDHNN | 0.784 ± 0.17 |
| VTSIPIPR | inactive |
| VTVCSFLLVSRNRNRLRRIY | inactive |
| VTVSPWLFFVWNDGLCSARL | 1.05 ± 0.096 |
| VVAIWLLGAINMLITTIYSS | inactive |
| VVCLFRVRYRW | 1.48 ± 0.12 |
| VVCLGTFITGDFIVVYTHYG | 2.88 ± 0.054 |
| VVDDIWRPIDL | inactive |
| VVFCEYSTCAVRSL | -0.219 ± 0.89 |
| VVGFMYYARFLPSDFVSINA | inactive |
| VVGNSCVYPVGPRFAE | -0.454 ± 0.9 |

| Substance | amyloid nucleation score |
| --- | --- |
| VVISYQTSMTNHGCLSFYQW | 2.13 ± 0.056 |
| VVMCGCSSSRMGLGPVYRTF | inactive |
| VVMTDHINIKGIVEPTVTTF | inactive |
| VVQSYFIRREEFLLSCVQAG | inactive |
| VVRIGSRACGLRRKVCGGFG | inactive |
| VVSDTKYVVVEWYTCGQSSD | inactive |
| VVSLESSAVVNGWLWVLAGA | inactive |
| VVTEVSSLSSTGGSFVWLCR | inactive |
| VWFLLSILPHLTKSVSWGNT | inactive |
| VWHMGWKLPDS | -0.39 ± 0.56 |
| VWPFPRFRILVKYSFFLGIW | -0.232 ± 0.48 |
| VWPQNLNPICKSNLTRCVGC | inactive |
| VWSHSI | inactive |
| VWSQIERLKHHPEFHMWC | inactive |
| VWTRTWLLMTCHCNRFKDCS | 1.67 ± 0.12 |
| VWVKSGKWYRQLIRKYVGSS | inactive |
| VWWSYLQKSKILI | 0.624 ± 0.2 |
| VWYAYRLYQTWKITNVLIPW | inactive |
| VYCHC | inactive |
| VYDMDNVRYNHRGNTERFSG | 0.109 ± 0.28 |
| VYIRQLRMPAFCLTSGRALD | inactive |
| VYIRTGN | inactive |
| VYKDHAIVLCWVVK | -0.437 ± 0.56 |

| Substance | amyloid nucleation score |
| --- | --- |
| VYKWECKDRKYGWRYCAETW | inactive |
| VYLHIVHCMGYVNDQGRNRS | inactive |
| VYMYVALPRSEDHNVF | inactive |
| VYNALNNSAVLQL | inactive |
| VYNTGFLGPVSFSAGKFLML | 0.943 ± 0.13 |
| VYVGVLVFITWYLSSLYNWA | inactive |
| VYVVRANRFMRSPQLRVLFS | inactive |
| VYYACGMDVKNFWELRLWGD | 1.99 ± 0.063 |
| WAEREDAAVSLGLWYGDTCF | inactive |
| WAFGYFGCYFQFLVLQDSVG | 1.87 ± 0.1 |
| WAVIFT | inactive |
| WCGRETSRQWA | 0.033 ± 0.39 |
| WCQFSDLSVAFK | inactive |
| WCVASILRQFPLCYFITQNP | inactive |
| WCVMPFNSCTTLMYKFSEN | 1.66 ± 0.071 |
| WDMENFLD | inactive |
| WDTILDLGGNDVEGSFPVTE | inactive |
| WDVTNLAGFLNDPVSLKLS | inactive |
| WDVYLPLVMSLK | 1.29 ± 0.12 |
| WEFSVMSRCRKGHYTALFVV | inactive |
| WESLIGLWASAGMIWVHWGS | inactive |
| WEYNASLLVLTHLGWAFHLC | inactive |
| WFCNYRIMYKVSSIAPMLNP | inactive |

| Substance | amyloid nucleation score |
| --- | --- |
| WFNQHTECHGRSVHLAAHNV | -0.14 ± 1 |
| WFNTTNSGVEP | inactive |
| WFSNWYYVARDDYLISGREE | inactive |
| WFWLRRSFGFYHVKSSNSFT | inactive |
| WFYYVM | inactive |
| WGKTRFWRVSSWLLNDVWRV | inactive |
| WGLGETCLKLSWPCRN | inactive |
| WGLLRYYE | 0.091 ± 0.28 |
| WGLLV | inactive |
| WGTVMTLSCVALEVYFSLRV | inactive |
| WGWRA | -0.215 ± 0.57 |
| WHGYYMFLW | inactive |
| WHTDWRW | inactive |
| WHWRGTICVLCAGYRWIAHS | inactive |
| WIFCLVAIFRTEVDMTNYFT | 0.355 ± 0.69 |
| WIGDIIILWMRHSDLCILNC | inactive |
| WIYRLWQGDIVPRVMTAHTA | -0.735 ± 1.8 |
| WKFSISWVYTKME | -0.423 ± 0.75 |
| WKGPNRQSMLHGLPLYIYQI | -0.305 ± 0.66 |
| WKNLSYRGFHYWTALWHMVR | -0.12 ± 1 |
| WKRNKRGKV | 1.4 ± 0.11 |
| WKTTMALRSVLPGGYLHFCV | inactive |
| WKVMLRLALRMQCTHLAVCW | inactive |

| Substance | amyloid nucleation score |
| --- | --- |
| WLCLEYMVDEADNFSDGAWM | inactive |
| WLELVSCS | inactive |
| WLKNF | inactive |
| WLLKIMQYLDLAGNG | inactive |
| WLLTNNLDCQCCMCLDWMWC | 2.81 ± 0.057 |
| WLRSVLLRVTLLNSWHSWVS | inactive |
| WLVFKSVFVDRM | inactive |
| WLWTLYDG | inactive |
| WLYRNA | inactive |
| WMCIEGIANLESAFNRRFST | inactive |
| WMELTVIQCWMAA | inactive |
| WMLLLTV | inactive |
| WMVGVKRSW | inactive |
| WNAYVHTNNV | inactive |
| WNIFSYNNSLVWNPEGNESG | 0.836 ± 0.27 |
| WNYRFYPVKRNGSFLSRIVR | -0.47 ± 0.8 |
| WPESIFKLRYRSGCCTEVND | inactive |
| WQLAGYWLEWSIRPEGALDD | inactive |
| WQRWMA | inactive |
| WQYLNFS | 0.75 ± 0.29 |
| WRACHSRSSVVNWISLPDYS | inactive |
| WRFRPVVYQRRPY | inactive |
| WRLVLLHW | inactive |

| Substance | amyloid nucleation score |
| --- | --- |
| WRQVL | inactive |
| WRRMTEPMSAKGLTNYLEST | inactive |
| WRVADTTEARMTGWGVWQWY | inactive |
| WRVLKADDYFFFWWASCFAY | inactive |
| WSAECLFLVWRIHSML | inactive |
| WSCNN | inactive |
| WSDQTDRAGHFAVFNLSMGY | inactive |
| WSEHGQWMYNRLCGSGFISH | inactive |
| WSFCVSTREGSSNNFSRCGK | inactive |
| WSKDG | inactive |
| WSMSSVTYNSVCSCGSWCE | 1.87 ± 0.091 |
| WSQEATTM | inactive |
| WSRMTKSHKCRWDQLVTVHG | inactive |
| WTLFWNPLI | inactive |
| WTMVSGDALTCYTMTTMVRR | inactive |
| WTRCRLTDFYHSGMSYHHSG | inactive |
| WTRGNRHVVLQLLGQVSF | inactive |
| WTTNLVNAYLDRHVHNLMPL | inactive |
| WVGLCFLRFQVHSTSDESVS | inactive |
| WVNKEDESVVWYIWFGIECC | inactive |
| WVVEQVDLLSGMVIGLKNSR | inactive |
| WVVWEM | inactive |
| WWSCGILSKPFFWYISRTF | inactive |
